Source: paper PMC11303751, “Novel enzymatic route to the synthesis of C-8 hydroxyflavonoids including flavonols and isoflavones” (Scientific Reports, 2024)

What was measured:
fdeE = biological target: T1, fdeE (Herbaspirillum seropedicae, UniProt D8J0W9); experiment: UV-Vis spectrum of purified enzyme; type: binding; details: FAD co-purified with the enzyme; none added
T1 construct: gene Hsero_1007; codon-optimised ORF in pRhaBAD_12, expressed in E. coli BL21(DE3), purified by Ni IMAC (HisTrap), desalted
T1 sequence (D8J0W9 1-376): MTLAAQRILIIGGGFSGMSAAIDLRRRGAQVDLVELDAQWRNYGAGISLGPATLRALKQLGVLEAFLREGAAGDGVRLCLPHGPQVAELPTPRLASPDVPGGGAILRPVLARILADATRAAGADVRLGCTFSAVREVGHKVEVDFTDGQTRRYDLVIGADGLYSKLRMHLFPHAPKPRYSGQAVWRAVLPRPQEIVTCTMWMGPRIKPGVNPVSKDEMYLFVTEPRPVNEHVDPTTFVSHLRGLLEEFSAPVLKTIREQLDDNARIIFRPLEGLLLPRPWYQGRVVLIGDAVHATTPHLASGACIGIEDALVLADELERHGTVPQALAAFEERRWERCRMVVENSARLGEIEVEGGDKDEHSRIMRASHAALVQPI

[1] = substrate: O=C1C[C@@H](c2ccc(O)cc2)Oc2cc(O)cc(O)c21; experiment: UPLC-DAD product-formation progress curve; type: biochemical, Herbaspirillum seropedicae; details: 1 mM NADPH, GDH/glucose regeneration, 25 mM DTT, 25 mM sodium phosphate pH 7.5, initial substrate 0.05 mM, from a single progress curve
From the text: (§1) UPLC-DAD product-formation progress curve on fdeE

[2] = substrate: O=c1cc(-c2ccccc2)oc2cc(O)cc(O)c12; experiment: UPLC-DAD product-formation progress curve; type: biochemical, Herbaspirillum seropedicae; details: 1 mM NADPH, GDH/glucose regeneration, 25 mM DTT, 25 mM sodium phosphate pH 7.5, initial substrate 0.05 mM, from a single progress curve
From the text: as §1

[3] = substrate: O=c1c(O)c(-c2ccc(O)c(O)c2)oc2cc(O)cc(O)c12; experiment: UPLC-DAD product-formation progress curve; type: biochemical, Herbaspirillum seropedicae; details: 1 mM NADPH, GDH/glucose regeneration, 25 mM DTT, 25 mM sodium phosphate pH 7.5, initial substrate 0.05 mM, from a single progress curve
From the text: as §1

[4] = substrate: O=c1cc(-c2ccc(O)c(O)c2)oc2cc(O)cc(O)c12; experiment: UPLC-DAD product-formation progress curve; type: biochemical, Herbaspirillum seropedicae; details: 1 mM NADPH, GDH/glucose regeneration, 25 mM DTT, 25 mM sodium phosphate pH 7.5, initial substrate 0.05 mM, from a single progress curve
From the text: as §1

purified protein = substrate: O=c1cc(-c2ccc(O)cc2)oc2cc(O)cc(O)c12; experiment: purified protein; details: 1 mM NADPH, GDH/glucose regeneration, 25 mM DTT, 25 mM sodium phosphate pH 7.5, initial substrate 0.05 mM, from a single progress curve

## Cc1cc2nc3c(=O)[nH]c(=O)nc-3n(C[C@H](O)[C@H](O)[C@H](O)COP(=O)(O)OP(=O)(O)OC[C@H]3O[C@@H](n4cnc5c(N)ncnc54)[C@H](O)[C@@H]3O)c2cc1C [FAD]
fdeE
  UV-Vis spectrum of purified enzyme: UV–Vis spectrium of purified fdeE with absorption spectra characteristic for FAD absorbance

B1: fdeE (Herbaspirillum seropedicae SmR1) (protein)
chain: T1 sequence (D8J0W9 1-376)
notes: codon-optimised ORF in pRhaBAD_12, expressed in E. coli BL21(DE3), purified by Ni IMAC (HisTrap), desalted
[1]
  Km: 0.422 µM
  Vmax: 2.09 µM/min
  kcat: 0.0277 s⁻¹
  kcat/Km: 65500 M⁻¹ s⁻¹
[2]
  Km: 431 µM
  Vmax: 88.2 µM/min
  kcat: 1.17 s⁻¹
  kcat/Km: 2720 M⁻¹ s⁻¹
[3]
  Km: 14.9 µM
  Vmax: 0.512 µM/min
  kcat: 0.00678 s⁻¹
  kcat/Km: 450 M⁻¹ s⁻¹
[4]
  Km: 51.8 µM
  Vmax: 6.12 µM/min
  kcat: 0.0811 s⁻¹
  kcat/Km: 1570 M⁻¹ s⁻¹
Purified protein
  Km: 20.2 µM
  Vmax: 4.02 µM/min
  kcat: 0.0532 s⁻¹
  kcat/Km: 2630 M⁻¹ s⁻¹
